Paper PMC13343191, “APE1 binds and processes abasic sites present in i-motif DNA and cooperates with PCBP1 in maintenance of telomeric stability”

Key:
APE1 NΔ33 = APE1 NΔ33 (UniProt P27695 34-318, del1-33); assay: southwestern blot; switchSENSE: MES pH 5.5 (APE1) or 6.5 (iMab); UV-crosslinking: 50 mM Tris-acetate pH 5.5, 50 mM KCl, 1 mM DTT, 0.8% glycerol, 0.4 mM EDTA, 4°C; NMR: 50 mM NaCl, 10 mM MES pH 5.5, 1 mM DTT, 25°C; SMADNE: 25 mM MES pH 5.5, 150 mM NaCl, 0.1 mg/ml BSA, 1 mM DTT, 1 mM Trolox; conditions: protein: recombinant; tags: GST (Factor Xa cleavable, pGEX-3X) or His/GFP (pTAC-MAT); label: 5' IRDye800 (SWB, UV-crosslinking); i-motif, intramolecular
APE1 WT = APE1 WT (UniProt P27695 1-318); assay: as above; conditions: protein: recombinant; tags: GST (Factor Xa cleavable, pGEX-3X) or His/GFP (pTAC-MAT); label: 5' IRDye800 (SWB, UV-crosslinking); i-motif, intramolecular
Sequence of APE1 WT (P27695 whole entry): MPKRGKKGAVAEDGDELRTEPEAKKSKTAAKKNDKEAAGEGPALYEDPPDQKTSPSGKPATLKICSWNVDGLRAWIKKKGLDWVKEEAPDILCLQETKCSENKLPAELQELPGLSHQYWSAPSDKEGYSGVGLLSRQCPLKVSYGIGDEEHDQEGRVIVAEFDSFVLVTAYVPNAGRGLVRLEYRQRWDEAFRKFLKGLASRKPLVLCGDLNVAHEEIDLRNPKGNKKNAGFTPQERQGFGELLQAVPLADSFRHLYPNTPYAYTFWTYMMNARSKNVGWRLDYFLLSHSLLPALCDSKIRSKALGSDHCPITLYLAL

Sequence of APE1 NΔ33 (P27695 34-318, stated change not applied): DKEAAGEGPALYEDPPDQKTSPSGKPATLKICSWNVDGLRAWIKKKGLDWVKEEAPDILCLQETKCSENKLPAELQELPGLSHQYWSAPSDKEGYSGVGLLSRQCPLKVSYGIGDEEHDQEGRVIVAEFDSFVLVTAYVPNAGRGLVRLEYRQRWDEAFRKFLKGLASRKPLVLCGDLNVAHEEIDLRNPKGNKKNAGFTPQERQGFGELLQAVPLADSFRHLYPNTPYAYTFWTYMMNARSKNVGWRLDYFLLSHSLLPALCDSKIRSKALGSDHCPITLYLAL

B1: C-NAT (structured_DNA)
DNA: TAACCCTAACCCTAACCCTAACCCTAA
binding result (APE1 NΔ33): binds
binding result (APE1 WT): binds
